Experimental findings from patent US20170058021A1 (SHANGHAI PULMONARY HOSPITAL, published 2017) are described below.

Test [1] addresses T1, human pulmonary surfactant protein A (hSP-A) (human, UniProt Q8IWL2 21-248).
T1 construct: Native material from ground human lung tissue (supernatant of the lysate, called 'purified hSP-A'); It may hold both SP-A1 and SP-A2 gene products; also called human lung SP-A
The test can be described thus: indirect phage ELISA, plate coated with hSP-A, OD 450 nm. For orientation: An ELISA detects its analyte on a solid surface through an enzyme-linked reagent.

Test [2] has as its target T1, human pulmonary surfactant protein A …. In words: ELISA with purified nanobody.

T1 sequence (Q8IWL2 21-248 limits assumed): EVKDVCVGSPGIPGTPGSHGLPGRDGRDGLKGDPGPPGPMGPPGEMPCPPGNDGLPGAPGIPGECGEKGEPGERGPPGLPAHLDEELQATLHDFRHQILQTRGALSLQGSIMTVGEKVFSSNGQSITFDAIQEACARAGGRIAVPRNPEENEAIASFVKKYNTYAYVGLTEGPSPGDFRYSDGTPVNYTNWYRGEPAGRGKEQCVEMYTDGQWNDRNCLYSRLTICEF

B1: human lung tissue nanobody Nb11 (VHH)
VHH: MQAQLAGQLQLVESGGGLVQPGGSLRLSCTASKFHLDSYAVAWFRQTPGKEREAVSFINTSDDVTYFADSVKGRFTISRDNSKNTVYLQMNVLKPEDTSIYVCAAVRSPGPTGPSMQPMWVPDLYDYWGQGTQVTVSSAHHSEDPGPRGLAAAGAPVPYPDPLEPRAA
B1: the “affinity value relative to negative control” value in test [1] is 3 times the negative control. Besides, the “OD450 relative to negative control” value in test [2] is 2 times the negative control.

B2: human lung tissue nanobody Nb15 (VHH)
VHH: MQAQLAGQLQLVESGGGLVQPGGSLSVSCAVRGRDLDYYVIGWFRQAPGKEREGVSCINNSDDTTYYSDSVKGRFTISRDHAKNTVYLQMNNLKPEDTALYYCAADFDRLDFTVKAMCVMKFFYYWGQGTQVTVSSEPKTPKPQGPRGLAAAGAPVPYPDLEPRAA
Turning to B2, the “affinity value relative to negative control” value in test [1] is 3 times the negative control. Also, the “OD450 relative to negative control” value in test [2] was 2 times the negative control.

B3: human lung tissue nanobody Nb17 (VHH)
VHH: MQAQLAVQLQLVESGGGLVQPGGSLRLACAASGFNLDDYADIGWFRQAPGKERERVLCITISDGTTYYEDSGKGRFSISTDIAKNTVFLQMDSLKAEDTAVYYCAGDPAPFCLYNTYVPRTWGQGTQVTVSSAHHSEDPGPRGLAAAGAPVPYPDPLEPRAA
notes: also called No. 17
For the molecule B3, in test [1], the “affinity value relative to negative control” value was 3 times the negative control. Moreover, in test [2], the “OD450 relative to negative control” value is 2 times the negative control.

B4: human lung tissue nanobody Nb43 (VHH)
VHH: MQAQLAVQLQLVESGGGLVQSGGSLRLSCAASGFTFNDYRMSWVRQAPGKGLEWVSDINSGGSSTYYADSVKGRFTVSRDNAKNTLYLQMNSLKPEDTAIYYCVALLGRGCSGLVQGAFGPWGQGTQVTVSSAHHSEDPGPRGLAAAGAPVPYPDPLEPRAA
In the case of B4, the “affinity value relative to negative control” value in test [1] was 3 times the negative control. Further, the “OD450 relative to negative control” value in test [2] is 2 times the negative control.
